According to PMC10797690, “The SIRT3-ATAD3A axis regulates MAM dynamics and mitochondrial calcium homeostasis in cardiac hypertrophy” (International Journal of Biological Sciences, 2024):

B1: ATAD3A-Flag [not stated] / itself (parent)
chain: MSWLFGIKGPKGEGTGPPLPLPPAQPGAESGGDRGAGDRPSPKDKWSNFDPTGLERAAKAARELEHSRHAKEALNLAQMQEQTLQLEQQSKLKEYEAAVEQLKSEQIRVQAEERRKTLNEETRQHQARAQYQDKLARQRYEDQLKQQQLLNEENLRKQEESVQKQEAIRRATVEREMELRHKNEMLRVEAEARARAKADRENADIIREQIRLKAAEHRQTILESIRTAGTLFGEGFRAFVTDWDKVTATVAGLTLLAVGVYSAKNATSVAGRYIEARLGKPSLVRETSRISVLEALRHPIQVSRRLVSRPQDALEGVILSPSLEARVRDIAIATRNTKKNKSLYRNVLMYGPPGTGKTLFAKKLALHSGMDYAIMTGGDVAPMGREGVTAMHKVFDWASTSRRGLLLFVDEADAFLRKRATEKISEDLRATLNAFLHRTGQHSNKFMLVLASNQPEQFDWAINDRIDEMVCFALPQREERERLVRMYFDKYVLKPATEGKQRLKVAQFDYGKKCSEVAQLTAGMSGREIAQLAVAWQAMAYSSEDGVLTEAMMDARVQDAVQQHQQKMQWLKVERPDSEASKPPHPSLLSC

Variants of: B1
Experiment: native gel electrophoresis (-DTT), anti-Flag immunoblot, oligomer band quantified
Conditions: with itself, H9c2 cells, n = 3, mean ± SEM, parent: 1, read off a plot
chain 1 K134A gave a response of 0.42 arbitrary.
Variant chain 1 K134E has a response of 1 arbitrary.
chain 1 K134Q gave a response of 0.16 arbitrary.
